In US20230357411A1 (published 2023):

How the values were obtained:
[1] = target: CD16 receptor (Fc gamma RIIIA) on Jurkat-NFAT-Luc-CD16 cells (UniProt P08637 17-254, limits assumed); assay: cell-based or functional assay
[2] = target: TrkA protein on the surface of NIH-3T3-TrkA cells; assay: cell-based or functional assay
[3] = target: T1, Mouse-TrKA on the surface of HEK293T-MouseTrKA cells (mouse, UniProt Q3UFB7 34-799); assay: flow cytometry competition: inhibition of biotinylated Mouse-NGF binding to HEK293T-MouseTrkA cells
T1 construct: whole, on cells
Excerpt: (§1) Mouse-NGF was biotinylated, and Mouse-NGF could bind to the extracellular region of Mouse-TrkA protein on HEK293T-MouseTrkA cells, and anti-TrkA monoclonal antibodies could also bind to the extracellular region of Mouse-TrkA protein on HEK293T-MouseTrkA cells. […] In the FIG. 5, the parent% value reflected the Mouse-NGF signal that bound to the extracellular region of the Mouse-TrKA protein on HEK293T-MouseTrkA cells.

[4] = target: T2, Human-TrKA receptor on the surface of HEK293T-HumanTrKA cells (human, UniProt P04629 33-796); assay: flow cytometry on HEK293T-HumanTrkA cells
T2 construct: whole, on cells
Experimental: (§2) Lentiviral technology was used to construct HEK293T-HumanTrkA cell model. […] Flow cytometry was used to detect the binding of each concentration gradient humanized antibody to the Human-TrKA receptor on the surface of HEK293T-HumanTrKA cells, and the binding ability of each humanized antibody to Human-TrKA was evaluated at the cellular level. In the FIG. 2, the EC50 (half binding concentration) value reflected the binding ability of the antibody to Human-TrKA; the smaller the EC50 value, the stronger the binding ability of the antibody to Human-TrKA, and the higher the affinity of the antibody. It was generally believed that the EC50 value of high-affinity antibodies was lower than 1.5 μg/mL.

[5] = target: T2, Human-TrKA receptor on the surface of …; assay: flow cytometry competition: inhibition of biotinylated Human-NGF binding to HEK293T-HumanTrkA cells
Excerpt: as §1, with “Human-NGF” for “Mouse-NGF”, “Human-TrkA” for “Mouse-TrkA”, “HEK293T-HumanTrkA” for “HEK293T-MouseTrkA”, “4,” for “5,”, “Human-TrKA” for “Mouse-TrKA”

[6] = target: T1, Mouse-TrKA on the surface of …; assay: flow cytometry on HEK293T-MouseTrkA cells
Experimental: as §2, with “construct HEK293T-MouseTrkA” for “construct HEK293T-HumanTrkA”, “of HEK293T-MouseTrKA” for “of HEK293T-HumanTrKA”, “to Mouse-TrKA” for “to Human-TrKA”, “FIG. 3,” for “FIG. 2,”, “to Mouse-TrKA;” for “to Human-TrKA;”, “to Mouse-TrKA,” for “to Human-TrKA,”

B1: humanized anti-TrkA monoclonal antibody H1L1-IgG1 (antibody)
VH: EVQLLESGGGLVQPGGSLKLSCKASGYAFTNYWLGWMKQRPGHGLEWIGDFYPRTGNTFYNENFKGKVTLTADKSSNTAYMQLSSLTSEDSAVYLCARAGTGFDYWGQGTTLTVSS
light: EIVMTQSPATLSLSVGERVTLSCKASENVGGYVSWYQQKPDQSPKLLIYGASSRHTGVPDRFTGSGSETDFTLTISSVQAEDLAAYHCGQNYIYPFTFGGGTKLEIKRTVAAPSVFIFPPSDEQLKSGTASVVCLLNNFYPREAKVQWKVDNALQSGNSQESVTEQDSKDSTYSLSSTLTLSKADYEKHKVYACEVTHQGLSSPVTKSFNRGEC
With B1 the “ADCC activity, luciferase reporter (Mean Value), half of the peak concentration EC50” value [1] was 0.0228 µg/mL and the “CDC activity, killing of NIH-3T3-TrKA cells (CCK8 cell viability), half-peak concentration IC50” value [2] was 0.222 µg/mL.

B2: human-mouse chimeric anti-TrkA monoclonal antibody 23E12 (H0L0-IgG4) (antibody)
heavy: QVQLQQSGAELVRPGTSVKISCKASGYAFTNYWLGWMKQRPGHGLEWIGDFYPRTGNTFYNENFKGKVTLTADKSSNTAYMQLSSLTSEDSAVYLCARAGTGFDYWGQGTTLTVSSASTKGPSVFPLAPCSRSTSESTAALGCLVKDYFPEPVTVSWNSGALTSGVHTFPAVLQSSGLYSLSSVVTVPSSSLGTKTYTCNVDHKPSNTKVDKRVESKYGPPCPPCPAPEAAGGPSVFLFPPKPKDTLMISRTPEVTCVVVDVSQEDPEVQFNWYVDGVEVHNAKTKPREEQFNSTYRVVSVLTVLHQDWLNGKEYKCKVSNKGLPSSIEKTISKAKGQPREPQVYTLPPSQEEMTKNQVSLTCLVKGFYPSDIAVEWESNGQPENNYKTTPPVLDSDGSFFLYSKLTVDKSRWQEGNVFSCSVMHEALHNHYTQKSLSLSLG
light: SIVMTQSPKSMSMSVGERVTLSCKASENVGGYVSWYQQKPDQSPKLLIYGASSRHTGVPDRFTGSGSETDFTLTISSVQAEDLAAYHCGQNYIYPFTFGGGTKLEIKRTVAAPSVFIFPPSDEQLKSGTASVVCLLNNFYPREAKVQWKVDNALQSGNSQESVTEQDSKDSTYSLSSTLTLSKADYEKHKVYACEVTHQGLSSPVTKSFNRGEC
notes: Printed mostly as 'HOLO-IgG4' (letter O for zero); also called HOLO-IgG4; chimeric antibody
B2 gave an IC50 [3] of 0.396 µg/mL, an EC50 [4] of 0.0867 µg/mL and an IC50 [5] of 0.881 µg/mL. The EC50 [6] was 0.105 µg/mL.

B3: humanized anti-TrkA monoclonal antibody H1L1-IgG4 (antibody)
heavy: EVQLLESGGGLVQPGGSLKLSCKASGYAFTNYWLGWMKQRPGHGLEWIGDFYPRTGNTFYNENFKGKVTLTADKSSNTAYMQLSSLTSEDSAVYLCARAGTGFDYWGQGTTLTVSSASTKGPSVFPLAPCSRSTSESTAALGCLVKDYFPEPVTVSWNSGALTSGVHTFPAVLQSSGLYSLSSVVTVPSSSLGTKTYTCNVDHKPSNTKVDKRVESKYGPPCPPCPAPEAAGGPSVFLFPPKPKDTLMISRTPEVTCVVVDVSQEDPEVQFNWYVDGVEVHNAKTKPREEQFNSTYRVVSVLTVLHQDWLNGKEYKCKVSNKGLPSSIEKTISKAKGQPREPQVYTLPPSQEEMTKNQVSLTCLVKGFYPSDIAVEWESNGQPENNYKTTPPVLDSDGSFFLYSKLTVDKSRWQEGNVFSCSVMHEALHNHYTQKSLSLSLG
light: EIVMTQSPATLSLSVGERVTLSCKASENVGGYVSWYQQKPDQSPKLLIYGASSRHTGVPDRFTGSGSETDFTLTISSVQAEDLAAYHCGQNYIYPFTFGGGTKLEIKRTVAAPSVFIFPPSDEQLKSGTASVVCLLNNFYPREAKVQWKVDNALQSGNSQESVTEQDSKDSTYSLSSTLTLSKADYEKHKVYACEVTHQGLSSPVTKSFNRGEC
notes: H1 + L1, IGHG4 heavy chain isotype (mutated Fc), kappa light chain
With B3 the IC50 [3] was 0.385 µg/mL, the “down-regulation of the level of TrkA protein tyrosine phosphorylation under NGF stimulation (AlphaLISA, p-TrkA), IC50” value [2] was 0.0207 µg/mL and the EC50 [6] was 0.134 µg/mL.

B4: humanized anti-TrkA monoclonal antibody H3L1-IgG4 (antibody, V domains shown)
VH: EVQLLESGGGLVQPGGSLKLSCKASGYAFTNYWLGWMKQRPGHGLEWIGDFYPRTGNTFYNENFKGQVTMSVDKSITTAYLQWNSLKASDTAMYYCARAGTGFDYWGQGTTLTVSS
VL: EIVMTQSPATLSLSVGERVTLSCKASENVGGYVSWYQQKPDQSPKLLIYGASSRHTGVPDRFTGSGSETDFTLTISSVQAEDLAAYHCGQNYIYPFTFGGGTKLEIKR
For B4, the IC50 [3] was 0.283 µg/mL, the EC50 [4] was 0.127 µg/mL and the IC50 [5] was 0.741 µg/mL. The EC50 [6] was 0.111 µg/mL.

B5: humanized anti-TrkA monoclonal antibody H3L2-IgG4 (antibody, V domains shown)
VH: EVQLLESGGGLVQPGGSLKLSCKASGYAFTNYWLGWMKQRPGHGLEWIGDFYPRTGNTFYNENFKGQVTMSVDKSITTAYLQWNSLKASDTAMYYCARAGTGFDYWGQGTTLTVSS
VL: EIVMTQSPATLSLSVGERVTLSCKASENVGGYVSWYQQKPDQSPKLLIYGASSRATGVPDRFTGSGSETDFTLTISSVQAEDLAAYHCGQNYIYPFTFGGGTKLEIKR
B5 was tested, and the IC50 [3] was 0.252 µg/mL, the EC50 [4] was 0.168 µg/mL and the IC50 [5] was 0.665 µg/mL. It also gave an EC50 [6] of 0.125 µg/mL.
